Source: patent US20200140561A1 (BLUEFIN BIOMEDICINE, published 2020)

T1: human IL1RAP (human, UniProt Q9NPH3 21-570)
T1 sequence: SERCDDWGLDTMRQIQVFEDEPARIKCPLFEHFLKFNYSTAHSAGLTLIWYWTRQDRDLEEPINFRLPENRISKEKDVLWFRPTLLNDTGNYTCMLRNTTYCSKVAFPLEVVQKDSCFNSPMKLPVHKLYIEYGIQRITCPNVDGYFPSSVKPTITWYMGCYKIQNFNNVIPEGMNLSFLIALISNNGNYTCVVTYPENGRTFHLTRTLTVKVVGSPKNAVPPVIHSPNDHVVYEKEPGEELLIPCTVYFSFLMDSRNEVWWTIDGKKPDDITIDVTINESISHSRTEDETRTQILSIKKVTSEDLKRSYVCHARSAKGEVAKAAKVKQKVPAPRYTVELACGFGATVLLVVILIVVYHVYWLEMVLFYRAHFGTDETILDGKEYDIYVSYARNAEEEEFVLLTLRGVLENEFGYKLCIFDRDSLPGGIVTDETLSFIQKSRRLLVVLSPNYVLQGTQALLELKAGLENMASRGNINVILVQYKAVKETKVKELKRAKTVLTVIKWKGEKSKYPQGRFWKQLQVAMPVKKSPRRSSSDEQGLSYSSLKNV


How the values were obtained:
Experiment in all cases: cell-based or functional assay
[1] = target: T1, human IL1RAP
[2] = target: T1, human IL1RAP; remark: listed apart in the source
[3] = target: T1, human IL1RAP; remark: listed apart in the source
[4] = target: T1, human IL1RAP; remark: listed apart in the source

EC50 (inhibition of IL-1beta signalling, HEK-Blue IL-1beta reporter cells, 0.5 ng/ml IL-1beta, Abs. 620 nM) [1] | EC50 (inhibition of IL-33 signalling, HEK-Blue IL-33 reporter cells, 0.5 ng/ml IL-33, Abs. 620 nm; partial) [2] | EC50 (inhibition of IL-1alpha signalling, HEK-Blue IL-1beta reporter cells, 0.5 ng/ml IL-1a, Abs. 620 nM) [3] | EC50 (inhibition of IL-33 signalling, HEK-Blue IL-33 reporter cells, 0.5 ng/ml IL-33, Abs. 620 nm; partial, lower plateau about 0.4) [2] | EC50 against IL-1α (IL-1 signaling reporter cell assay) [4] | EC50 against IL-1β (IL-1 signaling reporter cell assay) [4] | Binder
0.29 nM | 1.76 nM | 0.66 nM | – | – | – | 36A10_21B6 (antibody, V domains shown) VH: QGQVVESGGGVVQPGRSLRLSCAASGFTFSSYTLHWVRQAPGKGLEWVAVIWYDGSNKYYVDSVKGRFTISRDNSKNTLYLQMNSLRAEDTAVYYCAREYGSGSYYNVYYGMDVWGQGTTVTLSS VL: DIVMTQSPLSLPVTPGEPASISCRSSQSLLHSNGYNYLDWYLQKPGQSPHLLIYLASNRASGVPDRFSGSGSGTDFTLKISRVEAEDVGFYYCMQTLQIPLTFGGGTKVEIK
0.15 nM | – | 0.19 nM | 0.32 nM | < 1 nM | < 1 nM | 37E10_15B5 (antibody, V domains shown) VH: QVQLVESGGGVVQPGRSLRLSCAASGFTFRSHGMHWVRQAPGKGLEWVAVIWYDGSSEYYADSVKGRFTISRDNSKNTLYLQMNSLRAEDTAVYYCARENVYGSGWFFDYWGQGTLVTVSS VL: EIVMTQSPATLSVSPGERASLSCRASQSVGSNLAWYQQRPGQAPRLLIFGASTRATGIPARFSGSRSGTEFTLTISSLQSEDFALYYCQQYNNWPPWTFGQGTKLEIK
0.17 nM | – | 0.18 nM | 0.44 nM | < 1 nM | < 1 nM | 44E5_15C5 (antibody, V domains shown) VH: QVQLVESGGGVVQPGRSLRLSCAASGFTFRSHGMHWVRQAPGKGLEWVAVIWYDGSSDYYADSVKGRFTISRDNSKNTLFLQMNSLSAEDTAVYYCARENVYGSGWFFDYWGQGTLVTVSS VL: EIVMTQSPATLSVSPGERASLSCRASQSVGSNLAWYQQKPGQAPRLLIFGASTRATGIPARFSGSRSGTEFTLTISSLQSEDFALYYCQQYNNWPPWTFGQGTKLEIK
0.58 nM | – | 0.83 nM | – | – | – | 5G8_18A1 (antibody, V domains shown) VH: QVELQESGPGLVKPSDTLSLTCTVTGGSISTYYWSWIRQPPGKGLEWIGYIFYTGTTNYNPSLKSRVTISVDASKNQFSLKLNSVTAADTAVYYCARDGSLDYWGQGALVTVSS VL: DIQMTQSPSSLSASVGDRVTITCRASQSISNYLNWYQQKPGKAPKLLIFVASLLQSGVPSRFSGSGSGTDFTLTISSLQPEDFATYYCQQSYSTPFTFGPGTKLEIK
0.1 nM | – | 0.09 nM | – | – | – | 16H2_17D2 (antibody, V domains shown) VH: QVQLVESGGGVVQPGGSLRLSCAASGFTFSSHGMHWVRQAPGKGLEWVAVIWYDGSNKFYTDSVQGRFTISRDNSKNTLNLQMNSLRAEDTAVYYCAREGLRAGYYFDFWGQGTLVTVSS VL: DIQMTQSPSSLSASVGDRVTITCRASQRISFYSNWYQQKPGKAPKLLIYAASSLQSGVPSRFSGSGSGTDFTLTISSLQPEDFATYFCQQSHSTPLTFGGGTKLEIK
